Results: patent publication US20240158537A1

Molecular target: IL-7 receptor (IL-7R), heterodimer of IL-7R alpha (CD127) and common gamma chain (CD132), on primary human T cells (human) (UniProt P16871)
Assay: cell-based or functional assay

Sequence of IL-7 receptor (IL-7R), heterodimer of IL-7R alpha (CD127) and common gamma chain (CD132), on primary human T cells (human) (P16871 21-459, chain 1 of 2): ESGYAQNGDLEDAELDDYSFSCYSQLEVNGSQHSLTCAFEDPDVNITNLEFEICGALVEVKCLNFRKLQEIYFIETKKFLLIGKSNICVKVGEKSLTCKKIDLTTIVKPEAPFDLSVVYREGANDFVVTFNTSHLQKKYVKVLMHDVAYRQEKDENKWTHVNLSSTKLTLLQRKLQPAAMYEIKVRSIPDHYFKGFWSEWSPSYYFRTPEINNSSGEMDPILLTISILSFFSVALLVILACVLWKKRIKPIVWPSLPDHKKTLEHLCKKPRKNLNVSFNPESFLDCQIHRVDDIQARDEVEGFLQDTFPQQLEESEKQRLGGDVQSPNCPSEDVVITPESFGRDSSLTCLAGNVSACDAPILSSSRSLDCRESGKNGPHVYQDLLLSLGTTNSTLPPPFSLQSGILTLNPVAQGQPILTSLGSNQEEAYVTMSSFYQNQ
Sequence of IL-7 receptor (IL-7R), heterodimer of IL-7R alpha (CD127) and common gamma chain (CD132), on primary human T cells (human) (P31785 23-369, chain 2 of 2, further chain): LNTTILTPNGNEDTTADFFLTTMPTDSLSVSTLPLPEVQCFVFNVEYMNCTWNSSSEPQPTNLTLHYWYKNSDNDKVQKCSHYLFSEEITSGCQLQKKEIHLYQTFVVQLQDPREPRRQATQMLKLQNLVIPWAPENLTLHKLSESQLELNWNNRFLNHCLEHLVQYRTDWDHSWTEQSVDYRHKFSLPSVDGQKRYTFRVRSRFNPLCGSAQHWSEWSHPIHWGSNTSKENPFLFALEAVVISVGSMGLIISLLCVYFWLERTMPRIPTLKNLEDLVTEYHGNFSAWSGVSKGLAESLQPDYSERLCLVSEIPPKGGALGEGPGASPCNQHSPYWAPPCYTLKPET

Avg EC50 (nM) (human pSTAT5), CD4 Memory: 0.005 nM | Avg EC50 (nM) (human pSTAT5), CD4 Naive: 0.005 nM | Avg EC50 (nM) (human pSTAT5), CD4 Treg: 0.015 nM | Avg EC50 (nM) (human pSTAT5), CD8 Memory: 0.006 nM | Avg EC50 (nM) (human pSTAT5), CD8 Naive: 0.006 nM
Substance: Synthetic IL-7 of SEQ ID NO: 3 (M17Nle, M27Nle, N36Hse, M54Nle, M69Nle, D76Hse, E114Hse, M147Nle) (from UniProt P13232 26-177) (ligand)
